Data as given in FireProtDB (doi:10.1021/bi015547k).

B1: Steroid Delta-isomerase, P07445 (parent)
chain: MNLPTAQEVQGLMARYIELVDVGDIEAIVQMYADDATVEDPFGQPPIHGREQIAAFYRQGLGGGKVRACLTGPVRASHNGCGAMPFRVEMVWNGQPCALDVIDVMRFDEHGRIQTMQAYWSEVNLSVREPQ

Variants of: B1
Conditions: Pseudomonas putida; pH 7; 25 °C; Urea; CD; potassium phosphate 20 mM; reversible: yes; structure 1OH0; whole UniProt chain shown

| Variant | ddG of mutation (higher = less stable) [kcal/mol] | denaturant m value [kcal/mol/M] | denaturant midpoint (higher = more stable) [M] | unfolding free energy [kcal/mol] |
| --- | --- | --- | --- | --- |
| MNLPTAQEVQGLMARYIELVDVGDIEAIVQMYADDATVEDPFGQPPIHGREQIAAFSRQGLGGGKVRACLTGPVRASHNGCGAMPFRVEMVWNGQPCALDVIDVMRFDEHGRIQTMQAYWSEVNLSVREPQ [Y57S] | 9.5 | 3.43 | 2.41 | 14.8 |
| MNLPTAQEVQGLMARSIELVDVGDIEAIVQMYADDATVEDPFGQPPIHGREQIAAFYRQGLGGGKVRACLTGPVRASHNGCGAMPFRVEMVWNGQPCALDVIDVMRFDEHGRIQTMQAYWSEVNLSVREPQ [Y16S] |  | 2.93 | 1.99 | 12.4 |
| MNLPTAQEVQGLMARYIELVDVGDIEAIVQMSADDATVEDPFGQPPIHGREQIAAFYRQGLGGGKVRACLTGPVRASHNGCGAMPFRVEMVWNGQPCALDVIDVMRFDEHGRIQTMQAYWSEVNLSVREPQ [Y32S] |  | 2.55 | 1.56 | 10.6 |
